{"source": "paper doi:10.1101/2025.05.15.654345"}
{"target": "human IFITM3 (untagged; interferon-induced transmembrane protein 3) (UniProt Q01628)", "sequence (Q01628 whole entry)": "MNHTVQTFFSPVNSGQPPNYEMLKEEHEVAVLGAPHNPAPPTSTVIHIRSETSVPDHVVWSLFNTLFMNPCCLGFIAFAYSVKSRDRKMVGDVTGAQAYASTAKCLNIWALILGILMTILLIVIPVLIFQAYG", "test": "co-immunoprecipitation (anti-HA IP, anti-IFITM3 immunoblot, band ratio)", "settings": "HEK293T co-transfected with pCMV-IFITM3 (0.50 μg) and pBJ-97ZA Nef-HA WT or mutant (0.25 μg); parent: 100"}
{"substance": "97ZA013 Nef-HA (HIV-1 clade C primary isolate), wild type L164A; L165A", "percent of parent (% (IFITM3/HA ratio, WT = 100))": 87}
{"substance": "97ZA013 Nef-HA (HIV-1 clade C primary isolate), wild type G2A", "percent of parent (% (IFITM3/HA ratio, WT = 100))": 1}
{"substance": "97ZA013 Nef-HA (HIV-1 clade C primary isolate), wild type S152D; E153K", "percent of parent (% (IFITM3/HA ratio, WT = 100))": 42}
{"substance": "97ZA013 Nef-HA (HIV-1 clade C primary isolate), wild type R17A; R19A; R21A; R22A", "percent of parent (% (IFITM3/HA ratio, WT = 100))": 16}
{"substance": "97ZA013 Nef-HA (HIV-1 clade C primary isolate), wild type R192F; R193H", "percent of parent (% (IFITM3/HA ratio, WT = 100))": 188}
{"substance": "97ZA013 Nef-HA (HIV-1 clade C primary isolate), wild type E153K", "percent of parent (% (IFITM3/HA ratio, WT = 100))": 73}
{"substance": "97ZA013 Nef-HA (HIV-1 clade C primary isolate), wild type M20A", "percent of parent (% (IFITM3/HA ratio, WT = 100))": 124}
{"substance": "97ZA013 Nef-HA (HIV-1 clade C primary isolate), wild type M169V; Q171L", "percent of parent (% (IFITM3/HA ratio, WT = 100))": 244}
{"substance": "97ZA013 Nef-HA (HIV-1 clade C primary isolate), wild type N163T; C164S", "percent of parent (% (IFITM3/HA ratio, WT = 100))": 217}
